From US20100279930A1 (published 2010)
No end group written: not given here.

Each binder was assayed against human Y4 receptor (human, UniProt P50391 1-375) (assay: 125I-PP displacement).
human Y4 receptor, sequence (P50391 whole entry): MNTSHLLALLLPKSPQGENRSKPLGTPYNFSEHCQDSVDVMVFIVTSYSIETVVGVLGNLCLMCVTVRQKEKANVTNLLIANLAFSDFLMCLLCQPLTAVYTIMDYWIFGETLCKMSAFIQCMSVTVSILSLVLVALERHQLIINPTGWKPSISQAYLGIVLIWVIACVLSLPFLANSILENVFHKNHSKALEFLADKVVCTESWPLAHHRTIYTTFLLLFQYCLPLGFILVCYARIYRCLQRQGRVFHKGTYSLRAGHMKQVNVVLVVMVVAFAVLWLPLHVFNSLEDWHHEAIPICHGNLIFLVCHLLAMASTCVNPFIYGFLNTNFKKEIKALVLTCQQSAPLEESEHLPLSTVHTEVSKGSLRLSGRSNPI
APLEPMYPGDYATPEQMAQYETQLRRYINTLTRPRY [6803] gave an IC50 of 200 pM. For AAPLEPVYPGDNATPEQMAQYAADLRKYINMLTRPRY [6668], the IC50 was 280 pM. Binder AAPLEPVYPGDNATPEQMAQYAADLRRYINTLTRPRY [6658] has an IC50 of 160 pM. With AAPLEPVYPGDDATPQQMAQYAAELRKYINMLTRPRY [6814] the IC50 was 220 pM. Binder CAPLEPVYPGDNATPEQMAQYAADLRRYINMLTRPRY [6836] has an IC50 of 690 pM. AAPLEPFYPGDNATPEQMAQYAAALRRYINLLTRPRY [6811] was tested, and the IC50 was 200 pM. With AAPLEPVYPGDNATPEQMAQYAADLRKYINLLTRPRY [6669] the IC50 was 320 pM. For AAPLEPVYPGDNATPEQLAQYAADLRRYINLLTRPRY [6657], the IC50 was 250 pM. APLEPVYPGDNATPEELNRYYASLRKYINMLTRPRY [6673] showed an IC50 of 160 pM. With KPLEPVYPGDNATPEELNRYYASLRRYINMLTRPRY [compound of SEQ ID NO:73 (code 6675)] the IC50 was 89 pM. For APLEPVYPGDNATPEQMAQYAADLRRYINMLTRPHRY (ends and bridges not checked) [compound of SEQ ID NO:62 (code 6659)], the IC50 was 170 pM. YYYAPLEPVYPGDYATPEQRAQYETQLRRYINTLTRPRY [6806] gave an IC50 of 190 pM. YYYAPLEPVYPGDNATPEQRAQYAADLRRYINTLTRPRY [6808] was tested, and the IC50 was 150 pM. Work on APLEPFYPGDNATPEEIVKYYSALRRYINMLTRPRY [6844] yielded an IC50 of 190 pM. APLEPVYPGDNATPEELVKYFSALRRYINMLTRPRY [6848] showed an IC50 of 120 pM. APLEPFYPGDNATPEELVKYYSALRRYINMLTRPRY [6843] was tested, and the IC50 was 170 pM. APLEPVYPGDNATPEELNHYYSALRRYINMLTRPRY [6839] showed an IC50 of 120 pM. APLEPFYPGDNATPEELVKYYASLRRYINMLTRPRY [6846] gave an IC50 of 150 pM. With PLEPVYPGDDATPQQMAQYAAALRRYINMLTRPRY [6666] the IC50 was 110 pM. APLEPVYPGDNATPEELVKYFIELRRYINMLTRPRY [6849] was tested, and the IC50 was 150 pM. Work on APLEPVYPGDNATPEELVKYFVGLRRYINMLTRPRY [6850] yielded an IC50 of 170 pM. Work on APLEPFYPGDNATPEQMAQYAAALRRYINLLTRPRY [6810] yielded an IC50 of 110 pM. APLEPVYPGDNATPEQMAQYAADLRRYINMCTRPRY [6835] gave an IC50 of 260 pM. Work on APLEPVYPGDNATPEQRAQYAADLRRYINTLTRPRY [6807] yielded an IC50 of 190 pM. With PAPLEPVYPGDDATPQQMAQYAAELRRYINMLTRPRY [6865] the IC50 was 290 pM. Work on AAPLEPFYPGDDATPQQMAQYAAALRRYINMLTRPRY [6665] yielded an IC50 of 120 pM. AAPLEPFYPGDDATPQQMAQYAAELRRYINMLTRPRY [6818] was tested, and the IC50 was 150 pM. APLEPVYPGDDATPQQMARYAAELRRYINMLTRPRY [6815] gave an IC50 of 130 pM. APLEPEYPGDDATPQQMAQYAAELRRYINMLTRPRY [6819] was tested, and the IC50 was 140 pM. In the case of APLEPFYPGDDATPQQMAQYAAELRRYINMLTRPRY [6817], the IC50 is reported as 200 pM. Work on APLEPFYPGDDATPQQMARYAAELRRYINMLTRPRY [6816] yielded an IC50 of 150 pM. For APLEPFYPGDNATPEQMARYAAELRRYINMLTRPRY [6828], the IC50 was 120 pM. APLEPEYPGDDATPQQMARYAAELRRYINMLTRPRY [6827] showed an IC50 of 70 pM. APLEPVYPGDDATPQQMAQYAAELRRYINLLTRPRY [6812] showed an IC50 of 240 pM. With APLEPVYPGDNATPEQMAQYAAELRRYINMLTRPRY [6823] the IC50 was 130 pM. APLEPVYPGDDATPQQMAQYAAEMRRYINMLTRPRY [6667] was tested, and the IC50 was 180 pM. PAPLEPVYPGDNATPEELVKYYSALRRYINMLTRPRY [6861] showed an IC50 of 100 pM. AAPLEPVYPGDNATPEELNHYYSALRRYINMLTRPRY [6840] showed an IC50 of 170 pM. With AAPLEPVYPGDNATPEELVKYYSALRRYINMLTRPRY [6862] the IC50 was 110 pM. Work on HAPLEPVYPGDNATPEELVKYYSALRRYINMLTRPRY [6860] yielded an IC50 of 110 pM. AAPLEPVYPGDNATPEELVKYYSALRRYINMLTRPRY [6863] gave an IC50 of 160 pM. In the case of HAPLEPVYPGDNATPEELNQYYASLRRYINMLTRPRY [6857], the IC50 is reported as 220 pM. AAPLEPVYPGDNATPEELNRYYASLRRYINMLTRPRY [6671] showed an IC50 of 110 pM.
